From patent US20260070987A1

Target: equine FcRn (large alpha subunit p51) / equine beta-2-microglobulin complex, biotinylated (equine) (UniProt P30441)
Experiment: SPR (Biacore), pH 6

UniProt P30441, sequence (P30441 21-118, one chain of several): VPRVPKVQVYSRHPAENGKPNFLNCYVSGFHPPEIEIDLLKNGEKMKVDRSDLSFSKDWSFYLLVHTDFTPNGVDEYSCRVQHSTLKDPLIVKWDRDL

B1: equine IgG1 N434T (antibody, part only; not given: variable domains, not shown: another chain or arm of the molecule)
constant: ASTTAPKVFALAPGCGTTSDSTVALGCLVSGYFPEPVKVSWNSGSLTSGVHTFPSVLQSSGFYSLSSMVTVPASTWTSETYICNVVHAASNFKVDKRIEPIPDNHQKVCDMSKCPKCPAPELLGGPSVFIFPPNPKDTLMITRTPEVTCVVVDVSQENPDVKFNWYMDGVEVRTATTRPKEEQFNSTYRVVSVLRIQHQDWLSGKEFKCKVNNQALPQPIERTITKTKGRSQEPQVYVLAPHPDELSKSKVSVTCLVKDFYPPEINIEWQSNGQPELETKYSTTQAQQDSDGSYFLYSKLSVDRNRWQQGTTFTCGVMHEALHTHYTQKNVSKNPGK
Kd: 19.6 nM

B2: equine IgG1 T286E (antibody, part only; not given: variable domains, not shown: another chain or arm of the molecule)
constant: ASTTAPKVFALAPGCGTTSDSTVALGCLVSGYFPEPVKVSWNSGSLTSGVHTFPSVLQSSGFYSLSSMVTVPASTWTSETYICNVVHAASNFKVDKRIEPIPDNHQKVCDMSKCPKCPAPELLGGPSVFIFPPNPKDTLMITRTPEVTCVVVDVSQENPDVKFNWYMDGVEVREATTRPKEEQFNSTYRVVSVLRIQHQDWLSGKEFKCKVNNQALPQPIERTITKTKGRSQEPQVYVLAPHPDELSKSKVSVTCLVKDFYPPEINIEWQSNGQPELETKYSTTQAQQDSDGSYFLYSKLSVDRNRWQQGTTFTCGVMHEALHNHYTQKNVSKNPGK
Kd: 21.9 nM

B3: equine IgG1 N434V (antibody, part only; not given: variable domains, not shown: another chain or arm of the molecule)
constant: ASTTAPKVFALAPGCGTTSDSTVALGCLVSGYFPEPVKVSWNSGSLTSGVHTFPSVLQSSGFYSLSSMVTVPASTWTSETYICNVVHAASNFKVDKRIEPIPDNHQKVCDMSKCPKCPAPELLGGPSVFIFPPNPKDTLMITRTPEVTCVVVDVSQENPDVKFNWYMDGVEVRTATTRPKEEQFNSTYRVVSVLRIQHQDWLSGKEFKCKVNNQALPQPIERTITKTKGRSQEPQVYVLAPHPDELSKSKVSVTCLVKDFYPPEINIEWQSNGQPELETKYSTTQAQQDSDGSYFLYSKLSVDRNRWQQGTTFTCGVMHEALHVHYTQKNVSKNPGK
Kd: 31.2 nM

B4: equine IgG1 N434Y (antibody, part only; not given: Variable domains, not shown: another chain or arm of the molecule)
constant: ASTTAPKVFALAPGCGTTSDSTVALGCLVSGYFPEPVKVSWNSGSLTSGVHTFPSVLQSSGFYSLSSMVTVPASTWTSETYICNVVHAASNFKVDKRIEPIPDNHQKVCDMSKCPKCPAPELLGGPSVFIFPPNPKDTLMITRTPEVTCVVVDVSQENPDVKFNWYMDGVEVRTATTRPKEEQFNSTYRVVSVLRIQHQDWLSGKEFKCKVNNQALPQPIERTITKTKGRSQEPQVYVLAPHPDELSKSKVSVTCLVKDFYPPEINIEWQSNGQPELETKYSTTQAQQDSDGSYFLYSKLSVDRNRWQQGTTFTCGVMHEALHYHYTQKNVSKNPGK
Kd: 2.15 nM

B5: equine IgG1 Y436A (antibody, part only; not given: variable domains, not shown: another chain or arm of the molecule)
constant: ASTTAPKVFALAPGCGTTSDSTVALGCLVSGYFPEPVKVSWNSGSLTSGVHTFPSVLQSSGFYSLSSMVTVPASTWTSETYICNVVHAASNFKVDKRIEPIPDNHQKVCDMSKCPKCPAPELLGGPSVFIFPPNPKDTLMITRTPEVTCVVVDVSQENPDVKFNWYMDGVEVRTATTRPKEEQFNSTYRVVSVLRIQHQDWLSGKEFKCKVNNQALPQPIERTITKTKGRSQEPQVYVLAPHPDELSKSKVSVTCLVKDFYPPEINIEWQSNGQPELETKYSTTQAQQDSDGSYFLYSKLSVDRNRWQQGTTFTCGVMHEALHNHATQKNVSKNPGK
Kd: 20.4 nM

B6: equine IgG1 Y436C (antibody, part only; not given: Variable domains, not shown: another chain or arm of the molecule)
constant: ASTTAPKVFALAPGCGTTSDSTVALGCLVSGYFPEPVKVSWNSGSLTSGVHTFPSVLQSSGFYSLSSMVTVPASTWTSETYICNVVHAASNFKVDKRIEPIPDNHQKVCDMSKCPKCPAPELLGGPSVFIFPPNPKDTLMITRTPEVTCVVVDVSQENPDVKFNWYMDGVEVRTATTRPKEEQFNSTYRVVSVLRIQHQDWLSGKEFKCKVNNQALPQPIERTITKTKGRSQEPQVYVLAPHPDELSKSKVSVTCLVKDFYPPEINIEWQSNGQPELETKYSTTQAQQDSDGSYFLYSKLSVDRNRWQQGTTFTCGVMHEALHNHCTQKNVSKNPGK
Kd: 32.8 nM

B7: equine IgG1 Y436D (antibody, part only; not given: variable domains, not shown: another chain or arm of the molecule)
constant: ASTTAPKVFALAPGCGTTSDSTVALGCLVSGYFPEPVKVSWNSGSLTSGVHTFPSVLQSSGFYSLSSMVTVPASTWTSETYICNVVHAASNFKVDKRIEPIPDNHQKVCDMSKCPKCPAPELLGGPSVFIFPPNPKDTLMITRTPEVTCVVVDVSQENPDVKFNWYMDGVEVRTATTRPKEEQFNSTYRVVSVLRIQHQDWLSGKEFKCKVNNQALPQPIERTITKTKGRSQEPQVYVLAPHPDELSKSKVSVTCLVKDFYPPEINIEWQSNGQPELETKYSTTQAQQDSDGSYFLYSKLSVDRNRWQQGTTFTCGVMHEALHNHDTQKNVSKNPGK
Kd: 28.4 nM

B8: equine IgG1 Y436E (antibody, part only; not given: variable domains, not shown: another chain or arm of the molecule)
constant: ASTTAPKVFALAPGCGTTSDSTVALGCLVSGYFPEPVKVSWNSGSLTSGVHTFPSVLQSSGFYSLSSMVTVPASTWTSETYICNVVHAASNFKVDKRIEPIPDNHQKVCDMSKCPKCPAPELLGGPSVFIFPPNPKDTLMITRTPEVTCVVVDVSQENPDVKFNWYMDGVEVRTATTRPKEEQFNSTYRVVSVLRIQHQDWLSGKEFKCKVNNQALPQPIERTITKTKGRSQEPQVYVLAPHPDELSKSKVSVTCLVKDFYPPEINIEWQSNGQPELETKYSTTQAQQDSDGSYFLYSKLSVDRNRWQQGTTFTCGVMHEALHNHETQKNVSKNPGK
Kd: 33.8 nM

B9: equine IgG1 Y436F (antibody, part only; not given: variable domains, not shown: another chain or arm of the molecule)
constant: ASTTAPKVFALAPGCGTTSDSTVALGCLVSGYFPEPVKVSWNSGSLTSGVHTFPSVLQSSGFYSLSSMVTVPASTWTSETYICNVVHAASNFKVDKRIEPIPDNHQKVCDMSKCPKCPAPELLGGPSVFIFPPNPKDTLMITRTPEVTCVVVDVSQENPDVKFNWYMDGVEVRTATTRPKEEQFNSTYRVVSVLRIQHQDWLSGKEFKCKVNNQALPQPIERTITKTKGRSQEPQVYVLAPHPDELSKSKVSVTCLVKDFYPPEINIEWQSNGQPELETKYSTTQAQQDSDGSYFLYSKLSVDRNRWQQGTTFTCGVMHEALHNHFTQKNVSKNPGK
Kd: 12.5 nM

B10: equine IgG1 Y436G (antibody, part only; not given: variable domains, not shown: another chain or arm of the molecule)
constant: ASTTAPKVFALAPGCGTTSDSTVALGCLVSGYFPEPVKVSWNSGSLTSGVHTFPSVLQSSGFYSLSSMVTVPASTWTSETYICNVVHAASNFKVDKRIEPIPDNHQKVCDMSKCPKCPAPELLGGPSVFIFPPNPKDTLMITRTPEVTCVVVDVSQENPDVKFNWYMDGVEVRTATTRPKEEQFNSTYRVVSVLRIQHQDWLSGKEFKCKVNNQALPQPIERTITKTKGRSQEPQVYVLAPHPDELSKSKVSVTCLVKDFYPPEINIEWQSNGQPELETKYSTTQAQQDSDGSYFLYSKLSVDRNRWQQGTTFTCGVMHEALHNHGTQKNVSKNPGK
Kd: 22 nM

B11: equine IgG1 T286F (antibody, part only; not given: variable domains, not shown: another chain or arm of the molecule)
constant: ASTTAPKVFALAPGCGTTSDSTVALGCLVSGYFPEPVKVSWNSGSLTSGVHTFPSVLQSSGFYSLSSMVTVPASTWTSETYICNVVHAASNFKVDKRIEPIPDNHQKVCDMSKCPKCPAPELLGGPSVFIFPPNPKDTLMITRTPEVTCVVVDVSQENPDVKFNWYMDGVEVRFATTRPKEEQFNSTYRVVSVLRIQHQDWLSGKEFKCKVNNQALPQPIERTITKTKGRSQEPQVYVLAPHPDELSKSKVSVTCLVKDFYPPEINIEWQSNGQPELETKYSTTQAQQDSDGSYFLYSKLSVDRNRWQQGTTFTCGVMHEALHNHYTQKNVSKNPGK
Kd: 18.5 nM
